“And” between values parts separate entries of the source, which are not always exact repeats. Equal entries are not always repeated.
T1: recombinant Fc-tagged human LAG-3 (R&D Systems, 2319-L3-050) (human, UniProt P18627 23-450)
T1 construct: Bought protein; also called LAG-3 Fc; human LAG-3-Fc; not shown: Fc tag of the bought fusion protein
T1 sequence: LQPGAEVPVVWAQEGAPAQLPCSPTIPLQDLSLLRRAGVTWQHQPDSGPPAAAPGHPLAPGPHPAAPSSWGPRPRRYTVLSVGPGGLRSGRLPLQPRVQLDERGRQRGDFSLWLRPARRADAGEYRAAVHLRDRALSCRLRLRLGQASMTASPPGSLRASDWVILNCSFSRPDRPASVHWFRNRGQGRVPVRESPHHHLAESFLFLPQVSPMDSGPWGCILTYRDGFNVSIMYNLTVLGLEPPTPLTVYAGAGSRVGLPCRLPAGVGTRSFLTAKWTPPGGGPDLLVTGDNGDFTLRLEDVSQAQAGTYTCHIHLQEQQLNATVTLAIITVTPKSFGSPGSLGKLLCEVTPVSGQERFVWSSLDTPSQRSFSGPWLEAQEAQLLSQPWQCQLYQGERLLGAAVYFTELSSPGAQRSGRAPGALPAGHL

B1: anti-human LAG-3/PD-L1 mAb2 FS18-7-32/84G09 with LALA mutation (bispecific antibody, human IgG1, kappa, L234A L235A)
heavy: EVQLVESGGGLVQPGRSLRLSCAASGFTFDDYAMHWVRQTPGKGLEWVSGISWKSNIIGYADSVKGRFTISRDNAKNSLYLQMNSLRAEDTALYYCARDITGSGSYGWFDPWGQGTLVTVSSASTKGPSVFPLAPSSKSTSGGTAALGCLVKDYFPEPVTVSWNSGALTSGVHTFPAVLQSSGLYSLSSVVTVPSSSLGTQTYICNVNHKPSNTKVDKKVEPKSCDKTHTCPPCPAPEAAGGPSVFLFPPKPKDTLMISRTPEVTCVVVDVSHEDPEVKFNWYVDGVEVHNAKTKPREEQYNSTYRVVSVLTVLHQDWLNGKEYKCKVSNKALPAPIEKTISKAKGQPREPQVYTLPPSWDEPWGEDVSLTCLVKGFYPSEIAVEWESNGQPENNYKTTPPVLDSDGSFFLYSKLTVPYDRWVWPDEFSCSVMHEALHNHYTQKSLSLSPG
light: DIQMTQSPSSLSASVGDRVTITCRASQSISSYLNWYQQKPGKAPKPLIYVASSLQSGVPSSFSGSGSGTDFTLTISSLQPEDFATYYCQQSYSNPITFGQGTRLEIKRTVAAPSVFIFPPSDEQLKSGTASVVCLLNNFYPREAKVQWKVDNALQSGNSQESVTEQDSKDSTYSLSSTLTLSKADYEKHKVYACEVTHQGLSSPVTKSFNRGEC
notes: also called FS18-7-32/84G09LALA; F518-7-32/84G09LALA
B2: anti-human LAG-3/PD-L1 mAb2 FS18-7-33/84G09 with LALA mutation (bispecific antibody, human IgG1, kappa, L234A L235A)
heavy: EVQLVESGGGLVQPGRSLRLSCAASGFTFDDYAMHWVRQTPGKGLEWVSGISWKSNIIGYADSVKGRFTISRDNAKNSLYLQMNSLRAEDTALYYCARDITGSGSYGWFDPWGQGTLVTVSSASTKGPSVFPLAPSSKSTSGGTAALGCLVKDYFPEPVTVSWNSGALTSGVHTFPAVLQSSGLYSLSSVVTVPSSSLGTQTYICNVNHKPSNTKVDKKVEPKSCDKTHTCPPCPAPEAAGGPSVFLFPPKPKDTLMISRTPEVTCVVVDVSHEDPEVKFNWYVDGVEVHNAKTKPREEQYNSTYRVVSVLTVLHQDWLNGKEYKCKVSNKALPAPIEKTISKAKGQPREPQVYTLPPSWDEPWGEDVSLTCLVKGFYPSDIAVEWESNGQPEDNYKTTPPVLDSDGSFFLYSKLTVPYDRWVWPDEFSCSVMHEALHNHYTQKSLSLSPG
light: DIQMTQSPSSLSASVGDRVTITCRASQSISSYLNWYQQKPGKAPKPLIYVASSLQSGVPSSFSGSGSGTDFTLTISSLQPEDFATYYCQQSYSNPITFGQGTRLEIKRTVAAPSVFIFPPSDEQLKSGTASVVCLLNNFYPREAKVQWKVDNALQSGNSQESVTEQDSKDSTYSLSSTLTLSKADYEKHKVYACEVTHQGLSSPVTKSFNRGEC
notes: also called FS18-7-33/84G09LALA; F518-7-33/84G09LALA
B3: anti-human LAG-3/PD-L1 mAb2 FS18-7-58/84G09 with LALA mutation (bispecific antibody, human IgG1, kappa, L234A L235A)
heavy: EVQLVESGGGLVQPGRSLRLSCAASGFTFDDYAMHWVRQTPGKGLEWVSGISWKSNIIGYADSVKGRFTISRDNAKNSLYLQMNSLRAEDTALYYCARDITGSGSYGWFDPWGQGTLVTVSSASTKGPSVFPLAPSSKSTSGGTAALGCLVKDYFPEPVTVSWNSGALTSGVHTFPAVLQSSGLYSLSSVVTVPSSSLGTQTYICNVNHKPSNTKVDKKVEPKSCDKTHTCPPCPAPEAAGGPSVFLFPPKPKDTLMISRTPEVTCVVVDVSHEDPEVKFNWYVDGVEVHNAKTKPREEQYNSTYRVVSVLTVLHQDWLNGKEYKCKVSNKALPAPIEKTISKAKGQPREPQVYTLPPSWDEPWGEDVSLTCLVKGFYPSDIAVEWESNGYPEIEFKTTPPVLDSDGSFFLYSKLTVPYDRWVWPDEFSCSVMHEALHNHYTQKSLSLSPG
light: DIQMTQSPSSLSASVGDRVTITCRASQSISSYLNWYQQKPGKAPKPLIYVASSLQSGVPSSFSGSGSGTDFTLTISSLQPEDFATYYCQQSYSNPITFGQGTRLEIKRTVAAPSVFIFPPSDEQLKSGTASVVCLLNNFYPREAKVQWKVDNALQSGNSQESVTEQDSKDSTYSLSSTLTLSKADYEKHKVYACEVTHQGLSSPVTKSFNRGEC
notes: also called F518-7-58/84G09LALA
B4: anti-human LAG-3/PD-L1 mAb2 FS18-7-88/84G09 with LALA mutation (bispecific antibody, human IgG1, kappa, L234A L235A)
heavy: EVQLVESGGGLVQPGRSLRLSCAASGFTFDDYAMHWVRQTPGKGLEWVSGISWKSNIIGYADSVKGRFTISRDNAKNSLYLQMNSLRAEDTALYYCARDITGSGSYGWFDPWGQGTLVTVSSASTKGPSVFPLAPSSKSTSGGTAALGCLVKDYFPEPVTVSWNSGALTSGVHTFPAVLQSSGLYSLSSVVTVPSSSLGTQTYICNVNHKPSNTKVDKKVEPKSCDKTHTCPPCPAPEAAGGPSVFLFPPKPKDTLMISRTPEVTCVVVDVSHEDPEVKFNWYVDGVEVHNAKTKPREEQYNSTYRVVSVLTVLHQDWLNGKEYKCKVSNKALPAPIEKTISKAKGQPREPQVYTLPPSWDEPWGEDVSLTCLVKGFYPSDIAVEWESNGVPELNVKTTPPVLDSDGSFFLYSKLTVPYDRWVWPDEFSCSVMHEALHNHYTQKSLSLSPG
light: DIQMTQSPSSLSASVGDRVTITCRASQSISSYLNWYQQKPGKAPKPLIYVASSLQSGVPSSFSGSGSGTDFTLTISSLQPEDFATYYCQQSYSNPITFGQGTRLEIKRTVAAPSVFIFPPSDEQLKSGTASVVCLLNNFYPREAKVQWKVDNALQSGNSQESVTEQDSKDSTYSLSSTLTLSKADYEKHKVYACEVTHQGLSSPVTKSFNRGEC
B5: anti-human LAG-3/PD-L1 mAb2 FS18-7-95/84G09 with LALA mutation (bispecific antibody, human IgG1, kappa, L234A L235A)
heavy: EVQLVESGGGLVQPGRSLRLSCAASGFTFDDYAMHWVRQTPGKGLEWVSGISWKSNIIGYADSVKGRFTISRDNAKNSLYLQMNSLRAEDTALYYCARDITGSGSYGWFDPWGQGTLVTVSSASTKGPSVFPLAPSSKSTSGGTAALGCLVKDYFPEPVTVSWNSGALTSGVHTFPAVLQSSGLYSLSSVVTVPSSSLGTQTYICNVNHKPSNTKVDKKVEPKSCDKTHTCPPCPAPEAAGGPSVFLFPPKPKDTLMISRTPEVTCVVVDVSHEDPEVKFNWYVDGVEVHNAKTKPREEQYNSTYRVVSVLTVLHQDWLNGKEYKCKVSNKALPAPIEKTISKAKGQPREPQVYTLPPSWDEPWGEDVSLTCLVKGFYPSDIAVEWESNGYQEDNYKTTPPVLDSDGSFFLYSKLTVPYDRWVWPDEFSCSVMHEALHNHYTQKSLSLSPG
light: DIQMTQSPSSLSASVGDRVTITCRASQSISSYLNWYQQKPGKAPKPLIYVASSLQSGVPSSFSGSGSGTDFTLTISSLQPEDFATYYCQQSYSNPITFGQGTRLEIKRTVAAPSVFIFPPSDEQLKSGTASVVCLLNNFYPREAKVQWKVDNALQSGNSQESVTEQDSKDSTYSLSSTLTLSKADYEKHKVYACEVTHQGLSSPVTKSFNRGEC
B6: anti-human PD-L1 mAb 84G09 (without LALA mutation) (antibody, human IgG1, kappa)
heavy: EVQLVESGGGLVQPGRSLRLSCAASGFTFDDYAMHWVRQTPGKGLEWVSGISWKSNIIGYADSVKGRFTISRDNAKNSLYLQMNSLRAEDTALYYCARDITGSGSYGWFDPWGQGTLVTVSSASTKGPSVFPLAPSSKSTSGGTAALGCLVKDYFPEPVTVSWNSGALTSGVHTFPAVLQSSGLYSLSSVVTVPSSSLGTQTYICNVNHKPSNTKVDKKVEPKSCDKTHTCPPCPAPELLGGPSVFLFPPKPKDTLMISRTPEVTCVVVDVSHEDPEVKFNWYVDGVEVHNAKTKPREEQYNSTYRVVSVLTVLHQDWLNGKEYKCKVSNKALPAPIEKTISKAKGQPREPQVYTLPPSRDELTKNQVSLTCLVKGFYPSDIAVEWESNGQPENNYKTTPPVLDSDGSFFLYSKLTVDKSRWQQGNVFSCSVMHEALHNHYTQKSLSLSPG
light: DIQMTQSPSSLSASVGDRVTITCRASQSISSYLNWYQQKPGKAPKPLIYVASSLQSGVPSSFSGSGSGTDFTLTISSLQPEDFATYYCQQSYSNPITFGQGTRLEIKRTVAAPSVFIFPPSDEQLKSGTASVVCLLNNFYPREAKVQWKVDNALQSGNSQESVTEQDSKDSTYSLSSTLTLSKADYEKHKVYACEVTHQGLSSPVTKSFNRGEC
notes: Human IgG1; also called 84G09 (parental); parental anti-PD-L1 mAb

Columns and labels:
[1] = target: T2, human PD-L1 expressed on cells (human, UniProt Q9NZQ7 19-290); assay: cell-based or functional assay
[2] = target: T2, human PD-L1 expressed on cells; assay: flow cytometry on HEK cells expressing human PD-L1
Protocol: (§1) HEK cells expressing human or cynomolgus PD-L1 grown in DMEM (Life Technologies, 61965-026) containing 10% FBS (Life Technologies, 10270-1-6), 100 μg/ml Hygromycin B (Melford Laboratories Ltd, Z2475), 15 μg/ml Blasticidin (Melford Laboratories Ltd, B1105) and 1 μg/ml Doxycyclin (Sigma, D9891) were detached from tissue culture flasks using cell dissociation buffer (Life Technologies, 13151-014) and seeded in V-bottom 96-well plates (Costar, 3897) at 2×10⁵ cells/well. The plates were centrifuged at 1500 rpm for 3 min at 4° C. to pellet the cells. A dilution series of the mAb² (or control mAb) was incubated with the cells in a 100 μl volume for 1 h at 4° C. The plates were washed and secondary antibody (Anti-human Fc-488, Jackson ImmunoResearch, 109-546-098) was diluted 1:1000 in PBS and 100 μl was added to the cells for 30 min at 4° C. (plates were kept in the dark). The plates were washed then cells were resuspended in 100 μl PBS containing 1 μg/ml DAPI (Biotium, 40043). The plates were read using Canto II flow cytometer (BD Bioscience). Dead cells were excluded and the fluorescence in the FITC channel (488 nm/530/30) was measured. The data was fit using log (agonist) vs response in GraphPad Prism Software. The plates were read on a BD FACSCanto II cytometer (BD Biosciences) and the data analysed using FlowJo.

[3] = target: T3, cynomolgus PD-L1 expressed on cells (cynomolgus monkey, UniProt Q9NZQ7 19-290 (human entry)); assay: flow cytometry on HEK cells expressing cynomolgus PD-L1
T3 construct: also called cPD-L1; cyno PD-L1
Protocol: as §1

[4] = target: T4, human PD-L1 Fc (R&D Systems, 156-B7) (human, UniProt Q9NZQ7 19-239); assay: SPR, BIAcore T200; mAb2 captured on Protein L, PD-L1 Fc injected
T4 construct: Bought protein; not shown: Fc tag of the bought fusion protein
Protocol: (§2) Protein L (Thermo, 21189) was immobilized on flow cells 1 and 2 of a Series S CM5 chip (GE Healthcare, BR-1005-30) by amine coupling (GE Healthcare, BR-1000-50) to a surface density of 2000 RU by following the manufacturer's instructions for the BIAcore T200 instrument. […] The association time was 3 min and the dissociation time was 6 min. Running buffer was HBS-P (GE Healthcare, BR-1003-68). Both flow cells were regenerated by injecting 10 mM sodium hydroxide (NaOH) at a flow rate of 100 μl/min for 20 seconds. The data were analysed by double referencing against the blank flow cell.
(§3) The binding kinetics were fit with a 1:1 Langmuir model to generate binding association (kₐ) and dissociation (kd) rates. Equilibrium binding constants (KD) were calculated by dividing the dissociation rate by the association rate for each sample. Data analysis was performed with BiaEvaluation software version 3.2.

[5] = target: T1, recombinant Fc-tagged human LAG-3 (R&D …); assay: SPR, BIAcore T200; mAb2 captured on Protein L, human LAG-3 Fc injected
Protocol: as §2, §3

T3 sequence (Q9NZQ7 other isoform, or with tags, fused parts or gaps limits assumed): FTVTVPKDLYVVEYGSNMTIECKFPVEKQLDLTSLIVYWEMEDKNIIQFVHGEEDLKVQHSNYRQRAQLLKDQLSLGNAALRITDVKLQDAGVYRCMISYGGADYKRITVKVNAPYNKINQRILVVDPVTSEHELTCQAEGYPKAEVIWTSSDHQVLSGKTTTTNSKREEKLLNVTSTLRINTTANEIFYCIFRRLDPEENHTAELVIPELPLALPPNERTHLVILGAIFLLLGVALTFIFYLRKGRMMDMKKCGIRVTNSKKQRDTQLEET
T4 sequence (Q9NZQ7 19-239 limits assumed): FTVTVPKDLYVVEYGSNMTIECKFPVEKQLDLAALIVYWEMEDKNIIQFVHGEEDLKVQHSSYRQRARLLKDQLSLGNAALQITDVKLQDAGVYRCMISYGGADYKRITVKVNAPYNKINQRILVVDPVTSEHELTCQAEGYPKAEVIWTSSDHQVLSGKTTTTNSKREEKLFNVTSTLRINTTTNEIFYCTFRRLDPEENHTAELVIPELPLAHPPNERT
T2 sequence (Q9NZQ7 19-290 limits assumed): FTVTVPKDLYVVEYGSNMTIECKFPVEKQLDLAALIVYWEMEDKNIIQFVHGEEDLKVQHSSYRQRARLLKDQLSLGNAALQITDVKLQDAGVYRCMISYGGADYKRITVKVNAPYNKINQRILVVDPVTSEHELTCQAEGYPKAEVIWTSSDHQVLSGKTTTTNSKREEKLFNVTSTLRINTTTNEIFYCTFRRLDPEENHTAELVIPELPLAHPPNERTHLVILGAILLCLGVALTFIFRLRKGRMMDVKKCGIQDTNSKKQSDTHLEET

Binder	Maximal IL2 release calculated as % ctrl (84G09 + 25F7) [1] [%]	EC50 [2]	EC50 [3]	Kd [4] [nM]	koff [4] [s⁻¹]	kon [4] [M⁻¹ s⁻¹]	Kd [5] [nM]	koff [5] [s⁻¹]	kon [5] [M⁻¹ s⁻¹]
B1	82.9	3.82 nM	1.98 nM	1	0.00032	340000	0.049	0.00028	5.6e+06
B2	64	3.45 nM and 3.23 nM	1.9 nM and 1.73 nM	1.1	0.00042	370000	0.043	0.00018	4.2e+06
B3	79.4	3.77 nM and 3.91 nM	1.86 nM and 2.03 nM	–	–	–	–	–	–
B4	–	3.49 nM	1.81 nM	–	–	–	–	–	–
B5	79.8	–	–	–	–	–	–	–	–
B6	–	3.11 nM and 3.05 nM	1.64 nM and 1.96 nM	–	–	–	–	–	–

Source: patent US20220185894A1 (F STAR THERAPEUTICS, published 2022)
